The data set can be described thus: protease stability score; higher = more stable; yeast display proteolysis, trypsin and chymotrypsin.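 Note: log10 excess protease needed over predicted unfolded state with 0 meaning unfolded.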

Sequence “DEEDRHELQRRAEHGDFLNLAHNADPNAHIKVGDKDLTGREDLDHVLRKMHNRIDRYHLVHVTKTGDKLVVRAQARVDGRDIEFKMEIRARNGRIKEVSIRFRSEEDQKTFEKLLK” displayed a protease stability score of 0.059. Turning to “DEEDRKSLHDLNRTGDEDEIAHNVDPNAKLDVGEFKVHGSEQVKKVMEELKKRIDHRHIRSISVRGDKLVARVQIDVNGQTAYYRLIIRVHNGRIKEINADYTSEDDKKAVNEAKS”, the protease stability score was 0.756.

Sequence “DEEDRRKAKEAAERNDWKHFSDQMDEDVRVLVGDKRFHGREEAKQFVQKVEDRADTQSVDSVDVQGNQVDLDMKLNINGNDVRAQFEFYFHNGRIKEIKVTFTDPREERQFKELIK” came in with a protease stability score of 1.25. The same measure for “DEEDSKQMKQVLEAIRRGDEDHVRQQFDPNARIRVGDKEYHGMEEYASDLRSKRSKLDHKINLKTMSASNGRIDFVVQVQFTIDGQPVTDEVRATAVVHNGKIVSLSNEVDEERISEVEK”: -0.705. The same measure for “DEEDVDRAARKFAEGNPDDVLKLADPNAELHVGDQTVHGKEDLERVMELDKRRIDHIHVNSMSVQGDNVKVLFKVVVNGRNIEFTLTANAHNGSIQFVMLNFTDERDEDKRRKALS”: 0.28. The same measure for “DEEDVDRFAKTFAEIFQSGNPENIREMMDPNARLHVGERTYHGRETIVQYLKRLRRDVDSIHLVSITNHGESIVIKVSLDVNGQHVVVHINVHFQNGRIKSMSMTYRDEEDRKKYEG”: 2; for “DEEDVEKMVRLVRDGDWEQFARNADENVRIQIGNREVHGRNEAHKAADKLTKHIDHFRIDRYDRNGDKLDVLFRMTVNGQEVKARMYVEVHNGRVTRMEIRATSEEILKRIDEVLS”: 1.37; for “DEEDVKKAETLIKNGDWERIANHLDPNAKATYGDKTFHGHEELKRVIKNLQDQVDSLHIHKVDVQGNSVIVSADLHVNGETLKMTFVMHVHNGRVKEVSANVTSSELKELLDHMLS”: 0.749. On to “DEEDVKKILDKVLKMAVKGDKDQVKTMLKPDVEYIHIDEKRQGQQVAEQVHKEIKKVGARAEIKEKTVEGDKAKVTYQFKVNGRTVEVTAEVEAKDGRVDKWQVHISDEAKEMMTKG”, for which the protease stability score was -0.289. Under “DEEDVKRAERFQKHYQQGNTEEMRKLLDKNARIEVGDKTLHGRDDAKDKLRKNLDNWRFSMDSVDNKLKNGQVRIDIKYRMVINGRPFSITYKLNVKFENGKVQFMEDRISEDDQRHLEK” stands 0.582; under “DEEDVKRAVEIFNTNNEEDLRRLVDKHAKITVGDKDVHGRKTAETLIHKLNSQADRIHLESVHKNGEQVVIKMVADVNGEKLDFQIVFVIKNGRLTSQRNVARNEDVERTLKNLYS”, -0.119.

As for “DEEDVKRFAREFFTALQKNDEKKVTDLVDENARAEVGEREYHGREDVATMLARFNKRVDHAHLKRLEVTGDQVIMVFEVVHDGRKTNVSIDMRVHNGRLLEFRMETS”, the protease stability score was found to be 1.41. The same measure for “DEEDVKTLMNLMRNNNFEDLQRMADPNAKVIVGDQTYQGQKEVRTFLHKLKDQIDHLDIKSLDYHNGRVVLDVEATVNGQRFRYVLTVDVHNGHVKSVRFQARSEKDERILKEQAS”: 1.11; for “DEEDVKTMIRIINTGDPDKFEKYFDPNASVRIGDHTFKGNKQVSEFIRRMRRKADHIEVKRVKTTNGRADIDLVVTFNGREIRFHVHAEAHNGKAERQELKVTDPNQQKELNNLVH”: 0.837; for “DEEDVRRMENVVRENNEHRLAQLADKNARMTVGDQTYHGKEKIAEAIRRVQKQVDHMEIERLTIHGDKIRADVTMVVNGQRFRYVVVFNVKNGRLKERSVNFRDERDSEEFKKIEK”: 0.021. Under “DEEDVRRVAKQAKEYVQKGNKEKLMDLGKEGVDYRVLDHKAKGPEAIKTMQDYLERKGARVEVKKLEVKGDQVRTEVHYKQGDTTATAEVHATVKGGKIDKVKVDLSDRAKEILKHG” stands -0.141. The same measure for “DEEDVTRLAEEMVRAFESGNPEDWVKMLDENARVRIGDKVYHGREQVQTFANSWVSRADHARVESFSVHGDNIHIKAVMDIDGVRVQVIIVARAHNGRVQELRVEWRNEDQKKHVDK”: 1; for “DEEDYKKMNEQLERIYKHGDPEEAEKMFDPNAKAEVGDKTIHGREEFRKYQQDRKDQADHVQVKDFKVQGERFVMEVVAHVNGREVRQVVNFTVHNGKIQDLKVREK”: 0.013. In turn, “DEEDYKSIATEFVQALREGDEQHFRRLLDEEVNNDVGDKRIRGREKVETELRKILHKVDHVDVKDYKVHNGHVTVDMRFDDNGKEERWTMQAQFHNGRLKSIWMRTR” displayed a protease stability score of 1.08.

“DEEEADKVAKDFNRMLTKGDEHRASQLFDENATVVVGDKTVHGTESIKKIIHEIHRKADHIEIDSVKNRGNKVQVDLHQDINGTRERYVFHVSFHNGRIKYAEINQD” came in with a protease stability score of -0.322.

For “DEEEADSWMKILQTNDEKKARDNIDPNATAHVGEQRFDGAQDFVARFMQVLKSADHVRIHSVDHEGDKVRMDITFDINGQRARVVLNIQIKNGRVVHVSVEVRNEEVKKVFDKALK”, the protease stability score was found to be 0.16. The sequence “DEEEAEKILEKLVKAVENGDETKLMQLGADGVRYKVGDREDHGPEAIQKAMQYLKRYGVRVEFKEVKHKGDRVTTVAEYENGDKRNTVTIHAHAKGGKIDEVQVNVDEDLVKFIKHG” came in with a protease stability score of 0.266.

As to “DEEEAHELLKKVLHYTVKGNVDELRKFVKPDLKYVLGDQEHQGSQVADQVEKEIRRQGTRLEVEKAEVKGDKAELQYRFTVAGKTFTLHVRVRAKDHRVDEWKVEMTDDVKEYQKKG”, the protease stability score is 0.391.

On to “DEEEAHKFQEAVERNDFEKFVRNADPNAHVQVGDQHIDGHDKMRKQYHDLKRAADKIEYKSIDVQGDKIDVKFTVRFNGREYEVHMQIEVHNGRLKTVKYDATSEHNRTILQEMMS”, for which the protease stability score was -0.032. Under “DEEEAHKVKDVVENGDPDTLQNMADKDATARYGDKQVHGREQVRTAIKLWMDHVDHIDIRNIHVEGNKVNVDAVFNVNGRNLNVRFRMEVHNGKIKSFELQATDERIRETLERILS” stands 1.02; under “DEEEAHKVQEAWKTGDPDHLRDLFDKDVRLVYGDQEVHGREELVKIFKKQQDQYDHQHIERVSLTGNRVEIRYKAVVNGQTVSRVIYIKIKNGRIKEMEIRATNPEELKEMYRLAS”, 0.284. Under “DEEEAKEFADVFKNGDQDRYADLFDPNARVNIGNKEYHGRERVRTAVRTFFQRIDHIQVNHVRIEGNQLRIDAKMEINGQRIQVVFKVRIHNGHIKQFVVDFRDEQTMREFHKQLE” stands 1.27; under “DEEEAKEMMEKWMKIVEKGDSDKAQKIYKPNVVWENVDKKTQGVKQVKEMVKRIKDQGMEFQVRRAEVEGNTVEVQYDVRIGNTTVTFKVQVKAEGGRIDEVRVELDETAVKQLKKG”, 0.31; under “DEEEAKKFMETWQKAVEKGDTKTARELYDPNVEWIDYSQRHQGVEMVVKQMQQVKKKGVEFQIRKAKVEGNEVEVVYDANIGNETATFTVQFRAEGGRVKEVRVKMDEKAKKIKREG”, 0.064.

As to “DEEEAKKIVETVVKAVENGDVEKLKQMIKEGGKYKVINRERHGPEAVEEVIRLLQKAGVEMEFKEVRVEGNTATTRVEYRHGDKEAEVKVTATMQGGRIDEVRFKMSEEAQKMVEHG”, the protease stability score was determined as 1.08. The same measure for “DEEEAKKNVKVWEQNDPDTFNKLVDKDAKAVIGDKEVHGRSEINRIIKRLLQQADHWQVDEVHIHNGRVHISYQFVINGQRLDVRVTIELRNGRIKDVKVHFTDDEQKKRANENVR”: 0.943.

As to “DEEEAKKVLDKAVKAVKNGDLKHLKDLGKDGVEYRIADKKAHGPEQIEKVMEYLHRKGVRIEFKRQEVKGNTVTTDIEYQQGDETYTVQAHATVKGGRIDKVEIDVSERAKKVMDHG”, the protease stability score was found to be 0.149. Under “DEEEAKKVMEKWMKVVQKGDKDKVKKLYPPNVNWLNINTQKQGVEVVVKMMKQVQDKGAQFQVRRAEVKGDEAEMQYDLRIGDKTATFTVRIRAKGGQVEMVEVKVTEEAKKIVDTG” stands 0.111; under “DEEEAKKVVDQAVKYFQNGDAEKLRDLGKEGVKYRVADVEAHGPEVVLKAVERLKRQGVKIQYRKVEVKGDTVTTQLDYQQGDRTFTVTIEAEVKGGKIDRVEADANEDAKKIVKHG”, 0.172; under “DEEEAKKVVETAVKYLQKGNVKQLKDIGHEGVDYQVADNKKKGPDAIEDVLRYLEKLGVRMEVKKQEVKGDTAHTVVDYQQGDTKVRATVEADIQGGRIDRVQVNVPETLKKILKHG”, -0.284. Consider “DEEEAKRQMEEFAHGDPDKMVNNVDENADAVVGDRRFHGRKDIKEWAERMKKRIDTNKYEHVEQQGDKVDAIYNITVNGQELRFKLVIKIDNGRVEYVKVDVTDEENLKILQEIFS”, for which the protease stability score turned out to be 0.121. Under “DEEEAQDVLQEVFKAVSRGDEDRAEQLADPNAKAEYGDKSYHGKKVIKEAVRRMSEQADHFEFKHIDHDEGRVVFDMEIEFNGQTFKVKVKAQAHNGRAQNFKFQFRSEDDLERLQS” stands -0.23; under “DEEEAQKFRKHAKSNDQDNMRRMMDEDVRVIVGDFEVQGREDAEENLLRLNQRVDHISVKSIDVQGEHVTVDVEMTIDGTKFVVVYVVQFHNGRIKQLDLRARDEKDEKAFRRAVG”, 0.234.

As to “DEEEASTIAKVFRTNNWEELVRLADENAKVKVGDKEVHGRHVVDEMVKLISDAADTIKYDSYTVQGEKIEMVVKLVINGQKVEFKLTARAHNGRIKEIVLSVRDEDQKRKFEKEDG”, the protease stability score came to 0.783.

“DEEEDAEKLLERREKVFRQGDPDQMQRMMDPNARIKVGDREVHGREEVDRTLLEQARKADHIRFELKDMRVQGDKVVLDVHVKFEVNGRHQSRQVQYVAQFHNGRYTFRSARER” registered a protease stability score of 0.047. The same measure for “DEEEDEKFVEFLKNVERGNEDKLRELVPPDAKNQVGDTVVEGRDEWLKKLTSELKKSRVTYNVKSVSASNGRMSLVVDVTVDENGRPQKRDLRIDATVHNGKWQKVHLKFDS”: 0.342. The same measure for “DEEEDKKMLDNINTIWERGNPDEIEKLIDPNARVQVGDKTLHGREQIKHFLKRLHERIDHFEYQSVSAHNGRMRARVRFRVNGVHVRMEIDATYNNGKVKKMEVRVTDEKHLERARK”: 0.741; for “DEEEDKKVKHLITNIREGNSDDFIKMMDPNARLVYGDQRVKGTSQAREFVHSLHEQARIDLEVKHITAHNGRIDVTVKMELEVNGQPYRFSVNVIVHIRNGKVQEVVFQFDPRDEQRNRK”: 1.24. The same measure for “DEEEDNELAKRAAKAMSTNDEDQVENLVDKDVRLEVGDKTYTGDEQVRSAIQEFRRRADHVKVNKLKVEDGQANLRFTVNWNGVELDMVIHVKATNGKIKTVTIKVRDPEQERRFKS”: 0.024; for “DEEEDQRVAVDALKVIWRGDSDEAQKLFDPNARFRVGDTVYHGRENVKTALRRFRERADHIRVDHIETQGEHAVAKATVHSNGRTRRLRVHATVHNGRAKEAEVRDS”: 0.012. Turning to “DEEEEARKFVKTAQDKARQGNEDQLQNMADKDARVEVGDKVIHGRNEAVKTRREENKRYDRVHNDVQHITLRPGQITIRMRVHVEHNGQRRHREFVFVMHNNNGEWHVEFVEVK”, the protease stability score was -0.045. The same measure for “DEEEEHKFEDQVRTNDPDKQRKQLDKDVHVEYGDRTYHGRDAVDKWYKKMKKQVDHVHYHDIRIRNGHATLQNEANVNGRNVRMHVDIEVHNGRLKRMTINFRDEEDTKLFDRLVR”: 0.048.

The values are drawn from the NTF2 design screens of Basanta et al. (2020).
